From paper PMC11408855, “The structure of the SufS–SufE complex reveals interactions driving protected persulfide transfer in iron-sulfur cluster biogenesis” (The Journal of Biological Chemistry, 2024)
Changes are numbered by the printed parent chain. In names and notes the source's numbering stands.

Columns and labels:
Conditions in all cases: both partners purified
[1] = biological target: T1, EcSufS, C-terminal his-tagged (wild type) (Escherichia coli, UniProt P77444 1-406, PLP (pyridoxal 5'-phosphate) cofactor); assay: fluorescence polarisation; 100 nM BODIPY-FL-labeled EcSufE titrated with EcSufS; 50 mM Mops pH 8.0, 150 mM NaCl, 0.1 mg/ml bovine serum albumin, 25 °C, 30 min; presence of 500 μM cysteine; apparent KD
T1 construct: EcSufS, cysteine desulfurase SufS of Escherichia coli, UniProt P77444; the gene was cloned; also called WT EcSufS; cysteine desulfurase SufS; source: E. coli BL21(DE3)Δsuf, pET44, autoinduction, purified (Ni2+ HisTrap HP); not shown: His tag, C-terminal, kept
T1 sequence: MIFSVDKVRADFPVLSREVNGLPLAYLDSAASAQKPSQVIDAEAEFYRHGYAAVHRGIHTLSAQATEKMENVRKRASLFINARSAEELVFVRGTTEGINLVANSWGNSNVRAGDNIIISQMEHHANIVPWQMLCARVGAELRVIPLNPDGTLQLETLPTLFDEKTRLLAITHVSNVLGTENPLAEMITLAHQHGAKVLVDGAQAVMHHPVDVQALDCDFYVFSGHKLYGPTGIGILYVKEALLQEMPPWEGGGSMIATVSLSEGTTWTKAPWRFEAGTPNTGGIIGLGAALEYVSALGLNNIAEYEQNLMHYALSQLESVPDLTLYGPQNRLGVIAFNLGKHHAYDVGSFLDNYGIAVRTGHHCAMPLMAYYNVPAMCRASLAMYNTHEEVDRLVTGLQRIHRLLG

[2] = biological target: T2, D346A EcSufS, C-terminal his-tagged (Escherichia coli, UniProt P77444 1-406, D346A, PLP (pyridoxal 5'-phosphate) cofactor); assay: fluorescence polarisation; 100 nM BODIPY-FL-labeled EcSufE titrated with EcSufS; 50 mM Mops pH 8.0, 150 mM NaCl, 0.1 mg/ml bovine serum albumin, 25 °C, 30 min; absence of cysteine; apparent KD
T2 construct: EcSufS of Escherichia coli, UniProt P77444, with D346A; also called D346A SufS; source: E. coli BL21(DE3)Δsuf, pET44, autoinduction, purified (Ni2+ HisTrap HP); not shown: His tag, C-terminal, kept
T2 sequence: T1 sequence with D346A

[3] = biological target: T1, EcSufS, C-terminal his-tagged (wild …); assay: as above
[4] = biological target: T3, S349A EcSufS, C-terminal his-tagged (Escherichia coli, UniProt P77444 1-406, S349A, PLP (pyridoxal 5'-phosphate) cofactor); assay: as above
T3 construct: EcSufS of Escherichia coli, UniProt P77444, with S349A; also called S349A SufS; source: E. coli BL21(DE3)Δsuf, pET44, autoinduction, purified (Ni2+ HisTrap HP); not shown: His tag, C-terminal, kept
T3 sequence: T1 sequence with S349A

[5] = biological target: T4, Y354A EcSufS, C-terminal his-tagged (Escherichia coli, UniProt P77444 1-406, Y354A, PLP (pyridoxal 5'-phosphate) cofactor); assay: as above
T4 construct: EcSufS of Escherichia coli, UniProt P77444, with Y354A; also called Y354A SufS; source: E. coli BL21(DE3)Δsuf, pET44, autoinduction, purified (Ni2+ HisTrap HP); not shown: His tag, C-terminal, kept
T4 sequence: T1 sequence with Y354A

- Kd [1]: 0.6 µM
- Kd [2]: > 40 µM
- Kd [3]: 5.2 µM
- Kd [4]: 2.2 µM
- Kd [5]: > 20 µM
B1: BODIPY-FL-labeled C51A/E107C EcSufE (natural protein, Escherichia coli)
chain: MALLPDKEKLLRNFLRCANWEEKYLYIIELGQRLPELRDEDRSPQNSIQGAQSQVWIVMRQNAQGIIELQGDSDAAIVKGLIAVVFILYDQMTPQDIVNFDVRPWFCKMALTQHLTPSRSQGLEAMIRAIRAKAAALS
modifications: BODIPY-FL maleimide label (labeling efficiency 60 to 80%)
notes: EcSufE, transpersulfurase SufE of Escherichia coli, UniProt P76194, with C51A and E107C; also called "WT" EcSufE (double mutant background); C51A/E107C EcSufE control
